Data published in the Human Domainome abundance scans (Beltran et al. 2025).
± gives the uncertainty stated by the source.

B1: GA-binding protein alpha chain, residues 172 to 250; numbered along this chain, Q06546 (parent)
chain: GYRKEQERLGIPYDPIQWSTDQVLHWVVWVMKEFSMTDIDLTTLNISGRELCSLNQEDFFQRVPRGEILWSHLELLRKY

Variants of: B1
Experiment: abundance fitness (aPCA) (normalised: wild type 0, dead -1); higher = more abundant; growth selection in yeast, the domain comes from the species named
Settings: Homo sapiens

Variant | abundance fitness
GYRKEQERLGIPYDIIQWSTDQVLHWVVWVMKEFSMTDIDLTTLNISGRELCSLNQEDFFQRVPRGEILWSHLELLRKY [P15I] | -0.356 ± 0.066
GYRKEQERLGIPYDTIQWSTDQVLHWVVWVMKEFSMTDIDLTTLNISGRELCSLNQEDFFQRVPRGEILWSHLELLRKY [P15T] | -1.07 ± 0.23
GYRKEQERLGIPYDQIQWSTDQVLHWVVWVMKEFSMTDIDLTTLNISGRELCSLNQEDFFQRVPRGEILWSHLELLRKY [P15Q] | -0.878 ± 0.19
GYRKEQERLGIPYDYIQWSTDQVLHWVVWVMKEFSMTDIDLTTLNISGRELCSLNQEDFFQRVPRGEILWSHLELLRKY [P15Y] | -0.901 ± 0.28
GYRKEQERLGIPYDSIQWSTDQVLHWVVWVMKEFSMTDIDLTTLNISGRELCSLNQEDFFQRVPRGEILWSHLELLRKY [P15S] | -0.765 ± 0.066
GYRKEQERLGIPYDVIQWSTDQVLHWVVWVMKEFSMTDIDLTTLNISGRELCSLNQEDFFQRVPRGEILWSHLELLRKY [P15V] | -0.243 ± 0.036
GYRKEQERLGIPYDGIQWSTDQVLHWVVWVMKEFSMTDIDLTTLNISGRELCSLNQEDFFQRVPRGEILWSHLELLRKY [P15G] | -0.888 ± 0.073
GYRKEQERLGIPYDLIQWSTDQVLHWVVWVMKEFSMTDIDLTTLNISGRELCSLNQEDFFQRVPRGEILWSHLELLRKY [P15L] | -0.72 ± 0.058
GYRKEQERLGIPYDAIQWSTDQVLHWVVWVMKEFSMTDIDLTTLNISGRELCSLNQEDFFQRVPRGEILWSHLELLRKY [P15A] | -0.641 ± 0.067
GYRKEQERLGIPYDEIQWSTDQVLHWVVWVMKEFSMTDIDLTTLNISGRELCSLNQEDFFQRVPRGEILWSHLELLRKY [P15E] | -1 ± 0.15
GYRKEQERLGIPYDCIQWSTDQVLHWVVWVMKEFSMTDIDLTTLNISGRELCSLNQEDFFQRVPRGEILWSHLELLRKY [P15C] | -0.742 ± 0.08
GYRKEQERLGIPYDPIAWSTDQVLHWVVWVMKEFSMTDIDLTTLNISGRELCSLNQEDFFQRVPRGEILWSHLELLRKY [Q17A] | -0.056 ± 0.043
GYRKEQERLGIPYDPIHWSTDQVLHWVVWVMKEFSMTDIDLTTLNISGRELCSLNQEDFFQRVPRGEILWSHLELLRKY [Q17H] | 0.085 ± 0.082
GYRKEQERLGIPYDPIDWSTDQVLHWVVWVMKEFSMTDIDLTTLNISGRELCSLNQEDFFQRVPRGEILWSHLELLRKY [Q17D] | 0.017 ± 0.16
GYRKEQERLGIPYDPIFWSTDQVLHWVVWVMKEFSMTDIDLTTLNISGRELCSLNQEDFFQRVPRGEILWSHLELLRKY [Q17F] | -0.28 ± 0.1
GYRKEQERLGIPYDPIEWSTDQVLHWVVWVMKEFSMTDIDLTTLNISGRELCSLNQEDFFQRVPRGEILWSHLELLRKY [Q17E] | 0.049 ± 0.07
GYRKEQERLGIPYDPIGWSTDQVLHWVVWVMKEFSMTDIDLTTLNISGRELCSLNQEDFFQRVPRGEILWSHLELLRKY [Q17G] | -0.099 ± 0.04
GYRKEQERLGIPYDPICWSTDQVLHWVVWVMKEFSMTDIDLTTLNISGRELCSLNQEDFFQRVPRGEILWSHLELLRKY [Q17C] | -0.127 ± 0.06

Variant | abundance fitness
GYRKEQERLGIPYDPNQWSTDQVLHWVVWVMKEFSMTDIDLTTLNISGRELCSLNQEDFFQRVPRGEILWSHLELLRKY [I16N] | -0.082 ± 0.07
GYRKEQERLGIPYDPQQWSTDQVLHWVVWVMKEFSMTDIDLTTLNISGRELCSLNQEDFFQRVPRGEILWSHLELLRKY [I16Q] | 0.036 ± 0.074
GYRKEQERLGIPYDPVQWSTDQVLHWVVWVMKEFSMTDIDLTTLNISGRELCSLNQEDFFQRVPRGEILWSHLELLRKY [I16V] | -0.014 ± 0.034
GYRKEQERLGIPYDPWQWSTDQVLHWVVWVMKEFSMTDIDLTTLNISGRELCSLNQEDFFQRVPRGEILWSHLELLRKY [I16W] | -0.016 ± 0.056
GYRKEQERLGIPYDPRQWSTDQVLHWVVWVMKEFSMTDIDLTTLNISGRELCSLNQEDFFQRVPRGEILWSHLELLRKY [I16R] | -0.013 ± 0.03
GYRKEQERLGIPYDPAQWSTDQVLHWVVWVMKEFSMTDIDLTTLNISGRELCSLNQEDFFQRVPRGEILWSHLELLRKY [I16A] | -0.021 ± 0.041
GYRKEQERLGIPYDPMQWSTDQVLHWVVWVMKEFSMTDIDLTTLNISGRELCSLNQEDFFQRVPRGEILWSHLELLRKY [I16M] | 0.032 ± 0.26
GYRKEQERLGIPYDPEQWSTDQVLHWVVWVMKEFSMTDIDLTTLNISGRELCSLNQEDFFQRVPRGEILWSHLELLRKY [I16E] | 0.101 ± 0.079
GYRKEQERLGIPYDPPQWSTDQVLHWVVWVMKEFSMTDIDLTTLNISGRELCSLNQEDFFQRVPRGEILWSHLELLRKY [I16P] | -0.458 ± 0.059
GYRKEQERLGIPYDPCQWSTDQVLHWVVWVMKEFSMTDIDLTTLNISGRELCSLNQEDFFQRVPRGEILWSHLELLRKY [I16C] | 0.036 ± 0.054
GYRKEQERLGIPYDPDQWSTDQVLHWVVWVMKEFSMTDIDLTTLNISGRELCSLNQEDFFQRVPRGEILWSHLELLRKY [I16D] | -0.116 ± 0.086
GYRKEQERLGIPYDPTQWSTDQVLHWVVWVMKEFSMTDIDLTTLNISGRELCSLNQEDFFQRVPRGEILWSHLELLRKY [I16T] | -0.065 ± 0.069
GYRKEQERLGIPYDPHQWSTDQVLHWVVWVMKEFSMTDIDLTTLNISGRELCSLNQEDFFQRVPRGEILWSHLELLRKY [I16H] | 0.099 ± 0.073
GYRKEQERLGIPYDPLQWSTDQVLHWVVWVMKEFSMTDIDLTTLNISGRELCSLNQEDFFQRVPRGEILWSHLELLRKY [I16L] | -0.012 ± 0.036
GYRKEQERLGIPYDPFQWSTDQVLHWVVWVMKEFSMTDIDLTTLNISGRELCSLNQEDFFQRVPRGEILWSHLELLRKY [I16F] | -0.027 ± 0.064
GYRKEQERLGIPYDPKQWSTDQVLHWVVWVMKEFSMTDIDLTTLNISGRELCSLNQEDFFQRVPRGEILWSHLELLRKY [I16K] | -0.025 ± 0.085
GYRKEQERLGIPYDPYQWSTDQVLHWVVWVMKEFSMTDIDLTTLNISGRELCSLNQEDFFQRVPRGEILWSHLELLRKY [I16Y] | 0.037 ± 0.09
